The values that follow come from PMC5159498, “IQGAP1 Interaction with RHO Family Proteins Revisited” (The Journal of Biological Chemistry, 2016).

Holding throughout (experiment): stopped-flow fluorometry; mGppNHp-bound RHO protein (0.2 μM) rapidly mixed with IQGAP1 variant (2 μM, or 2-12 μM for kon); koff by displacement with 10 μM non-fluorescent GppNHp-bound GTPase; Kd = koff/kon; 30 mM Tris-HCl pH 7.5, 10 mM KH2PO4/K2HPO4, 5 mM MgCl2, 3 mM DTT
Holding throughout (conditions): both partners purified

Assay [1] deals with T1, IQGAP1 GRD1-CT (aa 863-1657) (human, UniProt P46940 863-1657).
T1 construct: human IQGAP1, GRD, RGCT and CT domains, aa 863-1657; The GST tag was cleaved 'if needed'; also called C-terminal half of IQGAP1; C-terminal 795 amino acids of IQGAP1
T1 sequence (looked up): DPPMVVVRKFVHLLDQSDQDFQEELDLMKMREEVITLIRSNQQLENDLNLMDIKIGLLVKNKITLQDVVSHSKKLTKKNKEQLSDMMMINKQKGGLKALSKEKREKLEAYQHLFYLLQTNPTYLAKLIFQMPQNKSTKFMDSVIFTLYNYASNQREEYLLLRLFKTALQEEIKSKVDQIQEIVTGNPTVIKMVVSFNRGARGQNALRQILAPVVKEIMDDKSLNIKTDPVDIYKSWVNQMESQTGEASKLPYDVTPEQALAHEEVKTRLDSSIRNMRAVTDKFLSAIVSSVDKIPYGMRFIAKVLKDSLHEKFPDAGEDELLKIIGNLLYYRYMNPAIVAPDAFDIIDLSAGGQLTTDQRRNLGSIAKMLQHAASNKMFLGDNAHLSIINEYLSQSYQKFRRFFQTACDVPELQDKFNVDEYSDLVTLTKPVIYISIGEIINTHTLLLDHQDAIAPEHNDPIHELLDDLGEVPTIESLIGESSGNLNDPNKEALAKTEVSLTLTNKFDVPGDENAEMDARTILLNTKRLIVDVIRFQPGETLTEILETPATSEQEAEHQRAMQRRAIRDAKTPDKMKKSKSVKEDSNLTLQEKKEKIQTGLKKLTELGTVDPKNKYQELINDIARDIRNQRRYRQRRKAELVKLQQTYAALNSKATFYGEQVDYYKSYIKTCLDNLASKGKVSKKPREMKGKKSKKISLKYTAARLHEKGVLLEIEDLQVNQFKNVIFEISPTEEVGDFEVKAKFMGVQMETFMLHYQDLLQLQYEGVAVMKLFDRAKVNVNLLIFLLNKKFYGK

Assay [2] has as its target T2, IQGAP1 GRD1-RGCT wild type (aa 877-1558) (human, UniProt P46940 877-1558).
T2 construct: human IQGAP1, GRD and RGCT domains, lacks the last 99 amino acids, aa 877-1558; also called GRD1-RGCT^WT; IQGAP1^877-1558
T2 sequence (looked up): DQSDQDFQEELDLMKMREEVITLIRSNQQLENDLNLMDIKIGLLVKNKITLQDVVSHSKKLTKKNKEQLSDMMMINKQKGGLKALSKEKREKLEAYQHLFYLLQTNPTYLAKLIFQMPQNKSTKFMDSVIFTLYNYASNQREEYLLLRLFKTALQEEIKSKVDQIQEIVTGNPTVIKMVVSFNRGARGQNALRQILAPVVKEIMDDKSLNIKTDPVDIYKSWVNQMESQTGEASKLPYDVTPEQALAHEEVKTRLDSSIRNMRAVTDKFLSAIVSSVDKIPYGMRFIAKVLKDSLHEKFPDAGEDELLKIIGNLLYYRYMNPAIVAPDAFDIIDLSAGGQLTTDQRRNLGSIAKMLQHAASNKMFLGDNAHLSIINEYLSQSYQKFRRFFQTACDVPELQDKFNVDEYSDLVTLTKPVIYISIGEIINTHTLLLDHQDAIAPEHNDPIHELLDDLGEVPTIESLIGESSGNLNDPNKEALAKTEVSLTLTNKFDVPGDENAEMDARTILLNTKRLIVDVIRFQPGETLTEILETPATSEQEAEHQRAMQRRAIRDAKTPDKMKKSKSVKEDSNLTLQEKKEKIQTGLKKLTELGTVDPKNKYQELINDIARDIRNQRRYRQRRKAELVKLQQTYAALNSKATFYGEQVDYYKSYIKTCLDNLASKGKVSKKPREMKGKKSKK

Assay [3] concerns the target T3, IQGAP1 GRD1-RGCT S1441E (aa 877-1558) (human, UniProt P46940 877-1558, S1441E).
T3 construct: human IQGAP1 aa 877-1558 with the phosphomimetic mutation S1441E, from the vector pET46 EkLIC; source: E. coli (pLysS BL21(DE3), CodonPlusRIL or BL21(Rosetta)), purified (Ni-NTA, gel filtration)
T3 sequence (looked up): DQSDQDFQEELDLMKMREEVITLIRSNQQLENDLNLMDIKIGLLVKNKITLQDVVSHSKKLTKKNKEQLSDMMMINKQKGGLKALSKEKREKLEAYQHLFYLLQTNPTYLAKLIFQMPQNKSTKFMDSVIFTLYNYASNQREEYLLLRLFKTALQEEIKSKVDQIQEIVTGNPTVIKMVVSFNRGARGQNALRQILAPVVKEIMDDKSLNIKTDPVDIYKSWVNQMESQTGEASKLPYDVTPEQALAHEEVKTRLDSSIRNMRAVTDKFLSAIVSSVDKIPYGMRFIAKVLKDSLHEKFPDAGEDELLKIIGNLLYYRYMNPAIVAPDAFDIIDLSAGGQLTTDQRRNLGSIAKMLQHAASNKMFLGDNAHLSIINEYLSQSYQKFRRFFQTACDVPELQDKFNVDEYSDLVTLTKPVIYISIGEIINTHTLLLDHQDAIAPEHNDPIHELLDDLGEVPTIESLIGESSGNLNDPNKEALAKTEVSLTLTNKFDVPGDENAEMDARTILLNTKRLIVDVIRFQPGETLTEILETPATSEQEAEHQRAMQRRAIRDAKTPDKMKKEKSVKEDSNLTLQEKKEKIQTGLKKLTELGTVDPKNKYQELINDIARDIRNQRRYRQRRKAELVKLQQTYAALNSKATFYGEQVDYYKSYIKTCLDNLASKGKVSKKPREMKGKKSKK

B1: CDC42 (aa 1-178) (domain or fragment)
chain: not shown
notes: human CDC42, C-terminally truncated, aa 1-178; Loaded non-covalently with mGppNHp, tGppNHp, mGDP or non-fluorescent GppNHp; the nucleotide is named in the format of each assay; also called CDC42^WT; CDC42-mGppNHp
For orientation: Kd means a measure of binding affinity in units of concentration. The low end stands for tighter binding, the high end for weaker binding. Take B1: the results for the dissociation constant (Kd) in assay [1], in assay [2] and in assay [3] were 300 nM, 2720 nM and 2050 nM, respectively.
